The text below walks through data of patent US20090263792A1, “ATOPIC DERMATITIS MARKER AND TECHNIQUE OF USING THE SAME” (FANCL CORPORATION, priority 2005, published 2009).

The subject of test [1] is skin tissues of NC/Nga mice modeling atopic dermatitis. Briefly: Western blotting of protein expression in skin tissues of mice modeling atopic dermatitis. In kind it is in vivo, mouse. On the procedure:
(§1) Six-week-old male mice (NC/Nga mice) modeling atopic dermatitis were obtained (NC/Nga slc, Sankyo Labo Service Corporation) and raised under conventional conditions. […] In view of the above, a 0.1% DNFB solution (haptene) was applied to the skin of the mice on both ears as well as the right and left sides of the back once a week for a total of 4 weeks.
(§2) To relieve inflammation caused by atopic dermatitis, lactoferrin was dissolved in drinking water at 1 μg/ml and administered.
(§3) Three mice were tested under each of the following experimental conditions: (1) haptene (−)/lactoferrin (−), (2) haptene (−)/lactoferrin (+), (3) haptene (+)/lactoferrin (−), and (4) haptene (+)/lactoferrin (+).
Skin tissues were cut out from mice treated with haptene/lactoferrin for 4 weeks and the tissue strips were cut into small pieces with a knife, after which the tissue pieces were transferred into a centrifugal tube whose tare weight had been measured beforehand, to measure the tissue weight. Different buffers were added by different amounts, such as tissue weight×0.85 mg Urea, tissue weight×0.1 μl 1.5% SDS, tissue weight×0.1 μl 8.5% Triton X-100, and tissue weight×0.05 μl 2-ME, and homogenized using a HG30 homogenizer (Hitachi, Ltd.). […] Protein content was quantified using the dot blotting method.
SDS-PAGE was performed with a Laemmli Tris-Glycin system using a Western blotting sample. […] If HRP labeled anti-mouse IgG (Amersham Bioscience, Inc.) (1:1000 dilution), HRP labeled anti-rabbit IgG (Amersham Bioscience, Inc.) (1:1000 dilution), HRP labeled anti-rat IgG (Amersham Bioscience, Inc.) (1:1000 dilution) or HRP labeled anti-goat IgG (Santa Cruz Biotechnology, Inc.) (1:1000 dilution) was used as the secondary antibody, an enhanced chemiluminescence (ECL) kit (Amersham Bioscience, Inc.) was used to implement detection by means of fluorescence color development. […]
Background: Immunoblotting shows a protein as a band on a membrane.

The subject of test [2] is NC/Nga mice modeling atopic dermatitis. Briefly: Haptene (DNFB) treatment of mice modeling atopic dermatitis, observation of skin inflammation. In kind it is in vivo, mouse. The note with it: haptene (0.1% DNFB, once a week, 4 weeks) applied; lactoferrin 1 μg/ml in drinking water; compared to haptene-treated mice not given lactoferrin. On the procedure: as §1, §2, §3
When raised with haptene treatment in a conventional environment, the mice (NC/Nga mice) modeling atopic dermatitis used in this study developed a macroscopically noticeable dermatitis very similar to atopic dermatitis after 4 weeks of haptene treatment. In this study, the mice were fed with drinking water mixed with lactoferrin, a substance shown to be effective on atopic dermatitis (a protein with a molecular weight of 80,000 found in saliva and blood and bonding with Fe ions).

B1: lactoferrin (protein, UniProt P02788 20-710, looked up)
Lactotransferrin: GRRRSVQWCAVSQPEATKCFQWQRNMRKVRGPPVSCIKRDSPIQCIQAIAENRADAVTLDGGFIYEAGLAPYKLRPVAAEVYGTERQPRTHYYAVAVVKKGGSFQLNELQGLKSCHTGLRRTAGWNVPIGTLRPFLNWTGPPEPIEAAVARFFSASCVPGADKGQFPNLCRLCAGTGENKCAFSSQEPYFSYSGAFKCLRDGAGDVAFIRESTVFEDLSDEAERDEYELLCPDNTRKPVDKFKDCHLARVPSHAVVARSVNGKEDAIWNLLRQAQEKFGKDKSPKFQLFGSPSGQKDLLFKDSAIGFSRVPPRIDSGLYLGSGYFTAIQNLRKSEEEVAARRARVVWCAVGEQELRKCNQWSGLSEGSVTCSSASTTEDCIALVLKGEADAMSLDGGYVYTAGKCGLVPVLAENYKSQQSSDPDPNCVDRPVEGYLAVAVVRRSDTSLTWNSVKGKKSCHTAVDRTAGWNIPMGLLFNQTGSCKFDEYFSQSCAPGSDPRSNLCALCIGDEQGENKCVPNSNERYYGYTGAFRCLAENAGDVAFVKDVTVLQNTDGNNNEAWAKDLKLADFALLCLDGKRKPVTEARSCHLAMAPNHAVVSRMDKVERLKQVLLHQQAKFGRNGSDCPDKFCLFQSETKNLLFNDNTECLARLHGKTTYEKYLGPQYVAGITNLKKCSTSPLLEACEFLRK
notes: a protein with a molecular weight of 80,000 found in saliva and blood and bonding with Fe ions
As to B1, the “amount of expression of Annexin II, Enolase 1 and PARK7 (all other than FABP-4) (FIG. 5)” value in test [1] (haptene-treated mice also given lactoferrin, to a level close to non-haptene-treated control mice) is given as “recovered”. Moreover, the “amounts of expression of Galectin-1, -4, -7 and -8 (FIG. 3)” value in test [1] (haptene-treated mice also given lactoferrin, to levels close to non-haptene-treated control mice) was “recovered”. Also, the “Moesin, Ezrin and Radixin severed types of low molecular weight (50-kDa), increased by haptene treatment (FIG. 4)” value in test [1] (haptene-treated mice, lactoferrin administration) is on record as “did not decrease”. In addition, the “inflammation on the back (skin condition, FIG. 1)” value in test [2] was “less inflammation”.
